Measurements: the supplement of paper PMC12764529
± gives the half width of the 95% confidence interval.

Assays:
[1] = folding stability dG unfold from chymotrypsin proteolysis; higher = more stable
Procedure, shortened: (§1)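 How resistant each design was to proteolysis was captured as K50, inferred by Bayesian fitting of sequencing counts. Unfolding free energy was then derived relative to a sequence-predicted unfolded-state K50 and a shared folded-state K50, per protease or combined. Digestion used trypsin and chymotrypsin at 11 threefold-diluted concentrations plus a no-protease condition, on mini-proteins under 80 residues without cysteine in a PA-tagged cDNA display construct. Designs were kept only when AlphaFold2 dimer inter-PAE was above 15.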

[2] = folding stability dG unfold from trypsin proteolysis; higher = more stable
Procedure, shortened: as §1

[3] = folding stability dG unfold (combined trypsin and chymotrypsin); higher = more stable
Procedure, shortened: as §1

Sequence | folding stability dG unfold [1] | folding stability dG unfold [2] | folding stability dG unfold [3]
SAGGKYKIEIVDVEVKEDGTVTIKLKLYNENGELIAEIEIELKGVKEVTLELEIGGKKIKITLKVEKPSAGG [r13_427_TrROS_Hall] | 22.2 ± 0.711 kJ/mol | 17.3 ± 1.51 kJ/mol | 22.4 ± 1.72 kJ/mol
SAGGLAEYIARYLQENDPRARVEAEEGDVLDGVRVIRVRVERVDDAFGGDIPSSADFILVIPAGAPPTSAGG [r19_8_TrMRF] | 5.78 ± 0.418 kJ/mol | 5.71 ± 0.105 kJ/mol | 5.78 ± 0.372 kJ/mol
SAGGLDAVLAELAKKPPGVTVELPVELPDGSRVVLTATWPAETSSPVITVKYYDPNRPEAVEEETFTVTSAG [r5_35_JUSTAS] | 6.17 ± 0.205 kJ/mol | 5.62 ± 0.335 kJ/mol | 6.13 ± 0.502 kJ/mol
SAGGLIEAIKEAIDQAPPGDEEVTIPIRFPNGTFVIEIRREKDKYKIEIEMQNPNGQKQEITITIEVSAGGS [r16_642_TrROS] | 7.08 ± 0.372 kJ/mol | 5.97 ± 0.381 kJ/mol | 6.89 ± 0.502 kJ/mol
SAGGLKELLEALKEGNLEEALEALKKLGIEEVKIEIKPVVRVVITVEVPKEKVKVKVEVRVFLPEEELSAGG [r13_359_TrROS_Hall] | 5.21 ± 0.962 kJ/mol | 8.13 ± 0.544 kJ/mol | 7.15 ± 1.38 kJ/mol
SAGGLKIDEFERSPNQGRYYVTIKIYHPDNGKPWDIEVPFNPDNGRWSAEEIAKTIAKKFKLPPGFTISAGG [r13_362_TrROS] | 9.62 ± 0.335 kJ/mol | 7.59 ± 0.0586 kJ/mol | 8.56 ± 0.259 kJ/mol
SAGGLKPGDWVIIMTIEFPFPFPDDDGKPQEWRIKITIWVPVEYDPPDGKLEIDNIFINIEIVPPDQISAGG [r13_312_TrROS] | 19 ± 0.418 kJ/mol | 14.7 ± 0.92 kJ/mol | 18.6 ± 0.753 kJ/mol
SAGGLLEELGLEIEEVEVEVEEVEVGQTVRIRVKVKGEDGEEFEIELEIRLPPPPVEVEEEVEEEEESAGGS [r8_216_TrROS_Hall] | 7.66 ± 0.377 kJ/mol | 8.01 ± 0.837 kJ/mol | 7.61 ± 0.586 kJ/mol
SAGGLLPLLKEIAEALGLPEIESLSFDPETGELTLRFRGPEPYLLRIPFRPVKDGGIPLDIEVYPTDLSAGG [r13_410_TrMRF] | 12.58 ± 0.126 kJ/mol | 12 ± 0.251 kJ/mol | 12.6 ± 0.234 kJ/mol
SAGGLPEEVEKLAEILAKLPPVVPVPVTFPDGVEVVYFPPTGFVAVRFYERDENGEWVLVGETFFPVSAGGS [r16_243_TrMRF] | 13.53 ± 0.0669 kJ/mol | 10.2 ± 0.176 kJ/mol | 12.5 ± 0.209 kJ/mol
SAGGLSGEAKLVEAEFEPETGTVRVFAEAGDELLTFEFKGTPFLPPIPASISPESLEKDEPVIRVSGSAGGS [r16_809_TrMRF] | 0.599 ± 0.586 kJ/mol | 2.5 ± 0.247 kJ/mol | 1.77 ± 0.331 kJ/mol
SAGGLSLEELADELAQENGWEITEAEPIEFTPNTIRFEVTVRMPDGKRRTIEIEIEIPPPKPPDQPKSAGGS [r8_309_TrROS] | 6.81 ± 0.243 kJ/mol | 4.8 ± 0.28 kJ/mol | 5.83 ± 0.544 kJ/mol
SAGGLTPEQWREIAKNFANELAKEYQERGPNVKIDVEVDPEEGYFKIKVENNDENMPRTITIPWDDIRSAGG [r13_354_TrROS] | 5.63 ± 0.276 kJ/mol | 2.93 ± 0.192 kJ/mol | 4.61 ± 0.331 kJ/mol
SAGGLYKKDPDGQYVKPVPKVPPIPIEIKFPNGVEVKIEIYPYSNHITIEYTGPNPELANELIQEIIQSAGG [r13_701_TrROS] | 2.61 ± 0.837 kJ/mol | 1.78 ± 0.381 kJ/mol | 2.94 ± 0.795 kJ/mol
SAGGMANPEDFKVVESLEFRDPDNGKPFTIEIAKPPDNNVPIMIWHNGSMYMFVIDGDKIEVFPIKNSAGGS [r16_711_TrROS] | 7.86 ± 0.418 kJ/mol | 6.28 ± 0.167 kJ/mol | 7.32 ± 0.381 kJ/mol
SAGGMEIKEVKYDPEEGYLYIVVAAPPSVSPSEVVPAVVRAARELTGAEVEVEVDPETGYVVAKVPVSAGGS [r8_314_TrMRF] | 8.02 ± 0.18 kJ/mol | 5.98 ± 0.109 kJ/mol | 7.42 ± 0.372 kJ/mol
SAGGMEIKIENIEINPDKKTIQYNFEIYHDGQPFKMDISIEVDPKNGLYKITVTYPDFPGVKHTLYIPSAGG [r13_615_TrROS] | 22 ± 0.628 kJ/mol | 14.2 ± 0.962 kJ/mol | 22.4 ± 2.26 kJ/mol
SAGGMESSVTTTPDPNSDTTTTTTTVPLPDETTTTTTTTTTAPGTVTTTTTTYPPGGTPTTTTSTTASAGGS [r16_733_JUSTAS] | 6.75 ± 0.218 kJ/mol | 9.96 ± 0.711 kJ/mol | 8.02 ± 0.502 kJ/mol
SAGGMESTSIPLEFKFEGDEEKAKKKVEEEAKKIAEEKGIEIKIEVKFDPNKPTATVTILVKGKEVEESAGG [r13_845_JUSTAS] | -1.18 ± 1.05 kJ/mol | -1.72 ± 0.243 kJ/mol | -1.19 ± 0.92 kJ/mol
SAGGMEVEITIVVPPGASLEEIEELARKLAEELGLSVENIKVTVIVVEPEEEEEEEEEKKLKEEEEKSAGGS [r16_240_TrROS_Hall] | 12.7 ± 2.34 kJ/mol | 8.08 ± 0.711 kJ/mol | 10.8 ± 2.3 kJ/mol
SAGGMHLVIPFDSPEEALEAAKELKKEFEEKGYTVKVYYFPETGDIHVLVEMKTDGKTKYLNVTVPFPSAGG [r13_641_TrMRF] | 8.58 ± 0.151 kJ/mol | 3.47 ± 0.142 kJ/mol | 7.22 ± 0.238 kJ/mol

Sequence | folding stability dG unfold [1] | folding stability dG unfold [2] | folding stability dG unfold [3]
SAGGMIAPDEKVLVKVTLSEGTTSRELEFEFEVPPGATEEELKQRVIDEIPEEPRKNWKVEVEIKPVSAGGS [r16_321_JUSTAS] | 0.827 ± 1 kJ/mol | 3.84 ± 0.234 kJ/mol | 2.5 ± 0.879 kJ/mol
SAGGMIEKIKEAAKKLGLKVKIEEVKFDKKTKKVTIKITLENGKKIEITVEMSEEELLNAIKELIKKSAGGS [r16_153_TrROS_Hall] | 15.1 ± 0.381 kJ/mol | 10.6 ± 0.46 kJ/mol | 14 ± 0.586 kJ/mol
SAGGMIEVFVEGLTLEETLRRLAEEYPDVPEVVVFFPDGTAVFFRRDGDEVEVVEVVPVGPVAPDELSAGGS [r8_225_TrMRF] | 13.05 ± 0.0711 kJ/mol | 10.8 ± 0.285 kJ/mol | 12.3 ± 0.255 kJ/mol
SAGGMIIIEGMSEEEIKNLIKEAIKKGEKVKKIVIRVNGKLYLITVDAKTKKITVEEIPLEELKKKKSAGGS [r16_481_TrROS_Hall] | 7.75 ± 0.28 kJ/mol | 2.89 ± 0.397 kJ/mol | 5.87 ± 0.879 kJ/mol
SAGGMIPEELIRKLFEDGKPVPLEQIVELIEKLTGRPVRLEEGEDKFRIVVLDPDTPELLDEIEIDFSAGGS [r8_105_TrMRF] | 6.57 ± 0.117 kJ/mol | 5.96 ± 0.36 kJ/mol | 6.5 ± 0.381 kJ/mol
SAGGMIQIERDKDGYLRITIWVPGDPKEAEEIAENIIELLQDLGFDEVDIDYEPFDGGVMIEITVKVSAGGS [r8_113_TrROS] | 14.6 ± 0.347 kJ/mol | 12.1 ± 0.502 kJ/mol | 13.8 ± 0.322 kJ/mol
SAGGMIRIERDGDRLTIQIPMPPGQPPTPEQVEEFARDILKKLGPDVRVKDVSHDPNGGFTIELKVPSAGGS [r8_103_TrROS] | 9 ± 0.213 kJ/mol | 6.17 ± 0.117 kJ/mol | 7.59 ± 0.289 kJ/mol
SAGGMIRITEGPNYYKITFWMPPNNPSLLEEIADFFGNPKVDTEPIPEDGMTRHEITLPLDDPEAIKSAGGS [r16_479_TrROS] | 5.75 ± 0.962 kJ/mol | 3.2 ± 0.46 kJ/mol | 4.97 ± 1.13 kJ/mol
SAGGMISEEDIEAAAKAIVEAAKNGDPERIEEEYARLEEALEEAEKEGDPERRGRLAKAVEAAKKLLGSAGG [r13_137_TrMRF] | 7.31 ± 0.18 kJ/mol | 5.99 ± 0.0837 kJ/mol | 6.88 ± 0.502 kJ/mol
SAGGMISKKLNPPSKEEAEKIAEEIKKKNPNYKVTMTYDPKTGTYTITITPLPKPPPDPKNFKEIIKSAGGS [r16_674_JUSTAS] | 7.29 ± 0.628 kJ/mol | 5.17 ± 0.502 kJ/mol | 6.17 ± 0.879 kJ/mol
SAGGMITEKVEKIDDGEIIKLTANLSDPSPVVAWLKATGKNVKLVEIKPTTDPETGNTTVNATFLLPSAGGS [r16_699_JUSTAS] | -0.98 ± 1.72 kJ/mol | 0.457 ± 1.05 kJ/mol | 0.0958 ± 0.92 kJ/mol
SAGGMITLTLPIPAEFLEKHGLDEAKKIVLEKAKEELKKLGLSEKYPIKKIEITPEPESLTATIVILSAGGS [r16_368_JUSTAS] | 8.16 ± 0.109 kJ/mol | 8.35 ± 0.151 kJ/mol | 8.36 ± 0.167 kJ/mol
SAGGMITLTVTREDWDTVYAKLKAEKNVTVKVVKGNTWSTYPASEVKALREEIPADPNEPLTLEIVESAGGS [r16_377_JUSTAS] | 1.6 ± 1 kJ/mol | 0.0842 ± 0.753 kJ/mol | 1.19 ± 0.962 kJ/mol
SAGGMIVANVNPETDKVTLLITRPVVLYDEETGELREEEVTLVITASLEELEKLEEESGLPLLIIPSSAGGS [r8_337_TrMRF] | 9.05 ± 0.297 kJ/mol | 6.81 ± 0.418 kJ/mol | 8.02 ± 0.628 kJ/mol
SAGGMIVEEETKPTPPLPDGTLVTESKVTIYINGKKITTTVKTTTLPDGTKVVETTLKGKKLKIILESAGGS [r16_448_JUSTAS] | 13.36 ± 0.113 kJ/mol | 9.44 ± 0.293 kJ/mol | 12.5 ± 0.314 kJ/mol
SAGGMIVTTIPGSPAIKVEIPFPETPFSATITIPIAPDGTVTADLKPHPDMSEELIEKIKELAKELLKSAGG [r13_139_JUSTAS] | 3.47 ± 0.155 kJ/mol | 4.3 ± 0.1 kJ/mol | 3.55 ± 0.385 kJ/mol
SAGGMKEITLPNGVKITEVIEKDGYYYIKIYNKKTGKVYEIKVKKGEKIEIKFPKGSTVTKIEIVKKSAGGS [r16_123_TrROS_Hall] | 13.6 ± 0.276 kJ/mol | 7.09 ± 0.167 kJ/mol | 11.7 ± 0.397 kJ/mol
SAGGMKIEIELEDGYLRVKIYDKDGKLIEEIEIKIEKVEPPPEVEVELSPEELAKKLGVEIEIKEKESAGGS [r16_778_TrROS_Hall] | 9.96 ± 0.837 kJ/mol | 6.76 ± 0.753 kJ/mol | 9.71 ± 1.84 kJ/mol
SAGGMKIEKIFSSEEEAKAAAEKIKNETPEGKELKIEISKIPLKENLPPESPEILDEERYIVKVELPSAGGS [r16_795_JUSTAS] | 0.487 ± 1.76 kJ/mol | 3.41 ± 0.326 kJ/mol | 1.95 ± 1 kJ/mol
SAGGMKIIEIEDRGPGKFAGPETVLEALRKALPGIPIEVLDYDPEKHVIRIRVPEEAVPRIVEAFKSSAGGS [r8_235_TrMRF] | 16.6 ± 0.234 kJ/mol | 15.4 ± 0.41 kJ/mol | 16.2 ± 0.238 kJ/mol
SAGGMKIIPITPEMIEEAKKLGLTPEDEAFEFEVTLPNGEVLRGTLIIPPDNPDIPVEAEPYLNLDKSAGGS [r16_497_TrMRF] | 3.78 ± 0.385 kJ/mol | 2.32 ± 0.418 kJ/mol | 2.94 ± 0.753 kJ/mol
